Results taken from patent US20260274954A1 (published 2026).
Positions count from the first letter of the chain named. Names may count otherwise.

Experiments:
[1] = target: cynomolgus PD-1 protein (construct not stated) (cynomolgus) (UniProt B0LAJ3); assay: ELISA, second round mutagenesis library screen; unit not given
[2] = target: T1, cynomolgus PD-1 protein (construct not stated) (cynomolgus, UniProt B0LAJ3 25-170); assay: as above
T1 construct: not shown: tag or Fc carrier of the recombinant (Sino Biological) cynomolgus PD-1
T1 sequence (B0LAJ3 entry or part of it limits assumed, form in doubt): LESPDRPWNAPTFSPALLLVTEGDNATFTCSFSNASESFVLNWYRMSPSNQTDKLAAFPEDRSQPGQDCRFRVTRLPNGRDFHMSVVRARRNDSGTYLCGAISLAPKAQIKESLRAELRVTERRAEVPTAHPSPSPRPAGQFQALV

Sequence of cynomolgus PD-1 protein (construct not stated) (cynomolgus) (B0LAJ3 entry or part of it limits assumed): as the sequence (B0LAJ3 entry or part of it limits assumed, form in doubt) above

B1: L1I (antibody, V domains shown)
VH: QVQLVQSGAEVKKPGSSVKVSCKASGFTFTTYYISWVRQAPGQGLEYLGYINMGSGGTNYNEKFKGRVTITADKSTSTAYMELSSLRSEDTAVYYCAIIGYFDYWGQGTMVTVSS
VL: DVVMTQSPLSLPVTLGQPASISCRSSQSLLDSDGNTYLYWFQQRPGQSPRRLIYLVSTLGSGVPDRFSGSGSGTDFTLKISRVEAEDVGVYYCMQLTHAPYTFGQGTKLEIK
Bmax [1]: 0.0517

B2: 2B1 (antibody, V domains shown)
VH: B1 VH
VL: B1 VL with A99W
Bmax [2]: 1.21

B3: 2E5 (antibody, V domains shown)
VH: B1 VH
VL: B1 VL with N35G, A99W
Bmax [2]: 1.72

B4: 2G4 (antibody, V domains shown)
VH: B1 VH
VL: B1 VL with N35S, A99W
Bmax [2]: 1.72

B5: 1H6 (antibody, V domains shown)
VH: B1 VH with I99L
VL: B1 VL with N35G, A99W
Bmax [2]: 0.317

B6: 2C2 (antibody, V domains shown)
VH: B1 VH
VL: B1 VL with N35A, A99W
Bmax [2]: 1.67

B7: 1G10 (antibody, V domains shown)
VH: B1 VH with I99L
VL: B1 VL with N35A, A99W
Bmax [2]: 1.08

B8: 5C4 (antibody, V domains shown)
VH: B1 VH with I99L
VL: B1 VL with N35Q, A99E
Bmax [2]: 0.258

B9: 8C10 (antibody, V domains shown)
VH: B1 VH
VL: B1 VL with N35Q, A99E, P100N
Bmax [2]: 1.11
